From patent publication US20050010967A1, “SK3-1B GFP transgenic mouse model for spinocerebellar ataxia and hyperexcitable behavior” (The Regents of the University of California, priority 2003, published 2005)

B1: SK3-1B-GFP: SK3-1B coding region inserted in-frame upstream to GFP in pEGFP-N1 expression vector; GFP-tagged truncated SK3 splice variant (protein)
chain: MFSLALKCLISLSTIILLGLIIAYHTREVQLFVIDNGADDWRIAMTYERILYISLEMLVCAIHPIPGEYKFFWTARLAFSYTPSRAEADVDIILSIPMFLRLYLIARVMLLHSKLFTDASSRSIGALNKINFNTRFVMKTLMTICPGTVLLVFSISLWIIAAWTVRVCERYHDQQDVTSNFLGAMWLISITFLSIGYGDMVPHTYCGKGVCLLTGIMGAGCTALVVAVVARKLELTKAEKHVHNFMMDTQLTKRIKNAAANVLRETWLIYKHTKLLKKIDHAKVRKHQRKFLQAIHQLRSVKMEQRKLSDQANTLVDLSKMQNVMYDLITELNDRSEDLEKQIGSLESKLEHLTASFNSLPLLIADTLRQQQQQLLSAIIEARGVSVAVGTTHTPISDSPIGVSSTSFPTPYTSSSSC
modifications: left off: large carriers
notes: SK3-1B coding region inserted in-frame upstream to GFP in pEGFP-N1 expression vector; GFP-tagged truncated SK3 splice variant
B2: SK3-1B-IRES-GFP: Untagged SK3-1B in bicistronic pIRES2-EGFP vector with GFP driven by an internal ribosome entry site (protein)
chain: B1 chain

Legend:
[1] = target: T1, SK2 channels in Jurkat T lymphocytes (Homo sapiens, UniProt Q9H2S1); test: Whole cell patch clamp of endogenous SK2 current in Jurkat T lymphocytes; format: cell-based
T1 construct: The native SK2 current was suppressed by SK3-1B; endogenous in cells; host or cells: Jurkat T lymphocytes (human)
T1 sequence (Q9H2S1 whole entry): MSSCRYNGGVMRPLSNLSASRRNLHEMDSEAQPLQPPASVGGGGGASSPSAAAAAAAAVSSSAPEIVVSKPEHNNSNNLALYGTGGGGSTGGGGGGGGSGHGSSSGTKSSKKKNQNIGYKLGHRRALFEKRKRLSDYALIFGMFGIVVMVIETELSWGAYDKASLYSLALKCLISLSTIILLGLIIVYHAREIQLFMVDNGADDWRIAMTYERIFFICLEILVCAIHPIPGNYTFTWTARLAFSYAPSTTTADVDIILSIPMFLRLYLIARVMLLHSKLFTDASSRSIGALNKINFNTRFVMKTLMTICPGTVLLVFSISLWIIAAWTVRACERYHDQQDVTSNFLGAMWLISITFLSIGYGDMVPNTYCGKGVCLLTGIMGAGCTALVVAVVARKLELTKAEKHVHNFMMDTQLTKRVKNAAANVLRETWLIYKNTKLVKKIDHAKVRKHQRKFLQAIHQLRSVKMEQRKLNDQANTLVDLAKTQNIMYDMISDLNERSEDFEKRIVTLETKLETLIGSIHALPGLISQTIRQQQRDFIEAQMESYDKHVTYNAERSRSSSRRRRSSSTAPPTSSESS
Text: (§1) Electrophysiology. PC12 and Jurkat T cells were studied in the whole cell configuration of the patch clamp technique with a holding potential of −80 mV. We determined SK and Kv current amplitude in untransfected cells or in cells transfected with SK3-1B-GFP, SK3-1BIRES-GFP or control constructs (GFP vector alone, GFP-Kv1.7). […] Brightly GFP-positive cells were identified under a fluorescence microscope to allow the analysis of cells expressing high levels of the channel constructs for electrophysiological studies. Control constructs were expressed at equivalently high levels as assessed by the intensity of the GFP signal.
(§2) To activate SK channels, the pipette solution contained (in mM): 145 K^+ aspartate, 2 MgCl2, 10 HEPES, 10 K2EGTA, and 8.5 CaCl2 (1 μM free Ca^2+), pH 7.2, 290-310 mOsm. […] The amplitude of the KV current was measured as the maximum current at 30 mV in 160 Na^+ aspartate. […]
(§3) SK3-1B suppresses other SK channels in a dominant-inhibitory manner. The inventors next determined whether SK3-1B could suppress SK2 channels. […] Using the electrophysiological protocol described above for PC12 cells, SK2 and Kv1.3 currents were measured in Jurkat cells. The inward SK2 current, detected at potentials more negative than −40 mV, was blocked by Lei-Dab (FIG. 5a), a highly specific SK2 peptide inhibitor. […]

[2] = target: T2, Kv1.3 channels in Jurkat T lymphocytes (Homo sapiens, UniProt P22001); test: Whole cell patch clamp of endogenous Kv1.3 current in Jurkat T lymphocytes; format: cell-based
T2 construct: they express SK2 channels and no other SK channels, along with voltage-gated Kv1.3 channels; endogenous in cells; host or cells: Jurkat T lymphocytes (human)
T2 sequence (P22001 whole entry): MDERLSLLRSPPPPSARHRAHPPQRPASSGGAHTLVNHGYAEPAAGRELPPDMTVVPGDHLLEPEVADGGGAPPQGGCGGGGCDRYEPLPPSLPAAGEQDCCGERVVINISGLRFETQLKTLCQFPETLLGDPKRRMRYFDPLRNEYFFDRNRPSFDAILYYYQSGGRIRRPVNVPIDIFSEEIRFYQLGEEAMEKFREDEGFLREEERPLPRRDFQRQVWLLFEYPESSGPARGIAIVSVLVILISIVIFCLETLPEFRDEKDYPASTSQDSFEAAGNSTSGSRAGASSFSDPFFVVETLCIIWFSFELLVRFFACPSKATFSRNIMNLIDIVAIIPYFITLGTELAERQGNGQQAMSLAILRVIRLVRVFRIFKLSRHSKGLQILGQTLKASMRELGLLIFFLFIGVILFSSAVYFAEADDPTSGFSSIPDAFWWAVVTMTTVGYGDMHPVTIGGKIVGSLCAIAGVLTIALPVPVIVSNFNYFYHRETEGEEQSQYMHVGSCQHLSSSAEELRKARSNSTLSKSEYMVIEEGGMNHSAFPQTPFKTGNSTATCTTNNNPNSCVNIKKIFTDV
Text: as §1, §2, §3

[3] = target: T3, endogenous SK3 current in PC12 cells (Rattus norvegicus, UniProt P70605); test: Whole cell patch clamp of endogenous SK (SK3) current in PC12 cells; format: cell-based; conditions: transfected PC12 cells, 48 h post-transfection; untransfected 6.24±1.57 nS
T3 construct: these cells natively express SK3 currents; endogenous in cells; host or cells: PC12 (rat pheochromocytoma)
T3 sequence (P70605 whole entry): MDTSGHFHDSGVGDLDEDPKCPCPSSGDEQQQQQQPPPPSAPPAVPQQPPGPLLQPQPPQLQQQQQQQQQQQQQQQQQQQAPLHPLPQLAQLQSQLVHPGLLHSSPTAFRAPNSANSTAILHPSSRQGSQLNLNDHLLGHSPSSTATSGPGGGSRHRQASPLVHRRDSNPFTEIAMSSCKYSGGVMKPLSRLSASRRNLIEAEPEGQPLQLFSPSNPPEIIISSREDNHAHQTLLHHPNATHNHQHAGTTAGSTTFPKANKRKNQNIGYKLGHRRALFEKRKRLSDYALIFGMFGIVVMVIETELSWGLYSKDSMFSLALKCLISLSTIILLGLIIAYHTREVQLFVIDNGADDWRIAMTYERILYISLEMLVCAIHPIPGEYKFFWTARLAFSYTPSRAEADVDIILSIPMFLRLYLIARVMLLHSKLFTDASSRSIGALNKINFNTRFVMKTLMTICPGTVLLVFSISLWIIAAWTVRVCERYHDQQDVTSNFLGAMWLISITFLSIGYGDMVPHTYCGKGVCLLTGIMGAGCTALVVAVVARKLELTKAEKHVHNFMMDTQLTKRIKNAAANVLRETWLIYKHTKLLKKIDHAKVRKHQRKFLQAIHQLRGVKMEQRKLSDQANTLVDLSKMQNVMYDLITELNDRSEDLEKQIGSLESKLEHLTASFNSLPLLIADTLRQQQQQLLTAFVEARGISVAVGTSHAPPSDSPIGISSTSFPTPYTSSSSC
Text: as §1, §2

[4] = test system: endogenous Kv current in PC12 cells; test: Whole cell patch clamp of endogenous Kv current in PC12 cells; format: cell-based, rat; conditions: transfected PC12 cells; 160 mM Na+ aspartate external; untransfected 707.94±147.7 pA
Text: as §1, §2

native SK3 in PC12 cells = test: Immunolabeling and confocal microscopy of native SK3 localization in PC12 cells; format: cell-based, rat; conditions: transfected PC12 cells; untransfected 1.72±0.08
Chain of native SK3 in PC12 cells (P70605 whole entry): as above
Method: Immunostaining. Following washing with Dulbecco's phosphate buffered saline (DPBS), cells were fixed with 4% paraformaldehyde for 20 min and washed 2× with DPBS. Permeabilization and blocking was done with 0.2% Triton-X-100 in 10% normal goat serum, followed by a wash with DPBS. Permeabilized cells were incubated with rabbit anti-SK3 antibody (Alomone Labs, Jerusalem, Israel) in a carrier solution containing 1% normal goat serum and 0.2 % sodium azide for 4 h at 4° C. Cells were subsequently washed and incubated with 1 μg/ml Alexa-Fluor 594 (referred to as Alexa-red)-conjugated goat-anti-rabbit-IgG (Molecular Probes) for 1 h at room temperature. […] As an additional test of antibody specificity, the anti-SK3 antibody was shown not to react with SK3-1B protein, an isoform that lacks the SK3 N-terminal epitope detected by the antibody (data not shown). […]
Confocal microscopy. […] The Scion image 4.0.2 program (Scion Corporation, Frederick, Md., USA) was used to determine the pixel intensity of fluorescence that tagged presumptive intracellular and membrane SK3 protein. Three axes were drawn through each stained cell and pixel intensities were measured along each of these axes. […] The average ratio of presumptive membrane to intracellular fluorescence was estimated from these intensity histograms. The expression level of each transfected construct was quantitated as mean pixel intensity. […]

[5] = 100 nM Lei-Dab, untransfected Jurkat T lymphocytes
[6] = transfected Jurkat T lymphocytes, n=4

Molecule | Effect on inward SK2 current [1, 5] | Effect on Kv1.3 current [2, 5] | SK currents (mean±SEM), slope conductance at −80 mV [3] [nS] | Kv currents (mean±SEM), maximum current at 30 mV [4] [pA] | SK2 current in transfected Jurkat T lymphocytes [1, 6] | Kv1.3 current in transfected Jurkat T lymphocytes [2, 6] | Ratio of presumptive membrane to intracellular SK3 fluorescence (mean±SEM) (native SK3 in PC12 cells)
Lei-Dab [reference compound] | blocked | unaffected |  |  |  |  | 
B1 |  |  | 0.68±0.08 | 475.96±61.78 | no SK2 current is observed | resembles that in untransfected cells | 1.1±0.09
B2 |  |  | 1.1±0.03 | 560.37±75.9 |  |  | 
